Laboratory results reported in patent publication US12410253B2, “Compositions comprising anti-NRP2 antibodies” (aTyr Pharma, Inc., priority 2019, dated 2025).
Entries after “also recorded” stand apart in the source; their conditions may differ.

How the values were obtained:
[1] = tested on: human lymphatic endothelial cell (HLEC); experiment: HLEC migration toward VEGF-C (modified Boyden chamber, xCELLigence); type: cell-based; settings: 191.5 pM VEGF-C, 24 hour period
Experimental: Migration assays were performed using a modified Boyden Chamber with […] pore size membrane, 16-well CIM plate (ACEA Biosciences.) Both sides of the membrane were coated with 5 μg/ml Fibronectin (Sigma) for 30 minutes at 37° C., 5% CO2. 160 μl of 191.5 pM VEGF-C or assay medium (0.1% BSA, ECM) was added to the lower chamber, the upper well attached, 50 ul assay medium added to the upper chamber before replacing the lid, and the plate was incubated for 1 hour at 37° C., 5% CO2 before baseline measurement was taken. HLECs were harvested, washed, and re-suspended in assay medium at 100,000 cells/well with aNRP2 antibody or control proteins and incubated for 30 minutes at 37° C., 5% CO2. Cells were added to the plate and incubated at room temperature for 30 minutes. Plate was inserted into xCELLigence RTCA DP (ACEA Biosciences) instrument, and migration was measured real-time every 5 minutes over a 24 hour period (2 wells per condition).

Human NRP2 (aa23-855) = molecular target: T1, Human NRP2 (aa23-855) (Homo sapiens, UniProt O60462); experiment: SPR binding affinity of anti-NRP2 antibodies to human NRP2 antigen; settings: KD = kd/ka, Langmuir (1:1) model
T1 construct: Human NRP2 (aa23-855)
T1 sequence (O60462 23-855 isoform O60462-3): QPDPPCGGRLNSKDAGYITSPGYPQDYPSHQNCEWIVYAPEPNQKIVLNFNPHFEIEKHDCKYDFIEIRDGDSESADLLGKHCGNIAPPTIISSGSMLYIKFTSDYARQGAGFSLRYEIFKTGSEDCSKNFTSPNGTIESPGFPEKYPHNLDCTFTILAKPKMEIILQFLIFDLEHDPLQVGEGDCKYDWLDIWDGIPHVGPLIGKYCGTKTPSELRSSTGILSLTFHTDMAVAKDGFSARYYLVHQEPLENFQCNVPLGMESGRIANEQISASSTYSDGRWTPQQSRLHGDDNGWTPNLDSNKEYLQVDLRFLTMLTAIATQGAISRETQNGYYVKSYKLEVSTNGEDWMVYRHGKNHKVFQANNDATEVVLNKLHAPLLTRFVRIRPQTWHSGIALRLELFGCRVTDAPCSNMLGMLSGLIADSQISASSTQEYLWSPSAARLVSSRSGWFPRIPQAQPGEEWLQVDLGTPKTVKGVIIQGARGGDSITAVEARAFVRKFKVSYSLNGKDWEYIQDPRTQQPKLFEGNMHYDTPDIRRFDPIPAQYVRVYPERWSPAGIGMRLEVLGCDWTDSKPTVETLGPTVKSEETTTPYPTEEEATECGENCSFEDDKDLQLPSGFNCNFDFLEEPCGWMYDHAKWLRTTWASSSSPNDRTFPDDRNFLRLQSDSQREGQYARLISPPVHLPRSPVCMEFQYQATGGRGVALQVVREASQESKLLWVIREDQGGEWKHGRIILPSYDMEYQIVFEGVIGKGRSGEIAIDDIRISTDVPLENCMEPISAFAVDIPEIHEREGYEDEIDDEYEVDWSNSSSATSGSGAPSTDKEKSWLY
Experimental: Anti-NRP2 antibody binding and affinity measurements. […] SPR experiments were conducted on a Bio-Rad ProteOn XPR36 Protein Interaction Array instrument. Biotinylated anti-human antibody (ThermoFisher Cat #7103302100) was immobilized on ProteOn NLC sensor chips. Anti-NRP2 antibodies were subsequently flowed over and captured by the anti-human antibody. Human NRP2 antigen protein was flowed over the captured antibody at varying concentrations (150, 50, 16.67, 5.56, 1.85 nM). The sensor chip surface was regenerated between each analyte run to remove anti-NRP2 antibodies and NRP2 protein. Data was double referenced against a surface with no anti-NRP2 antibody captured (immobilized anti-human antibody only) and a buffer only blank. Affinity constants were derived by globally fitting sensograms to a Langmuir (1:1) interaction model in the ProteOn manager software. For each anti-NRP2 antibody, data from the multiple NRP2 concentrations was fit as a single data set with dissociation rate constant (kd), association rate constant (ka) and Rmax values as global parameters. The reported binding affinity is the equilibrium dissociation constant (KD) calculated from kd/ka. • Running buffer: 50 mM HEPES, 300 mM NaCl, 5 mM CaCl2), 0.005% Tween-20, pH 7.4 • Immobilized antibody: CaptureSelect Human Fab-kappa Kinetics Biotin Conjugate, ThermoFisher Cat #7103302100 • Antigen: Human NRP2 (aa23-855) with C-terminal Avi-, Myc- and His-tags • Regeneration buffer: 10 mM glycine pH 2.0

NRP2/PLXNA1 = experiment: Split-luciferase receptor dimerization assay, NRP2/PLXNA1 with SEMA3F; type: cell-based, human; settings: antibody 100 nM; ligand induced dimerization
Experimental: To further extend the assessment of the biological activity of the anti-NRP2 antibodies, their activity was assessed in a receptor dimerization assay. In brief, vectors encoding a split luciferase pBiT1.1 and pBiT2.1 were obtained from Promega corporation (Madison, Wisconsin). The complete extracellular domain and transmembrane helices of NRP2a (version 2), NRP2b (version 5) (See table N1), FLT4 (VEGFR3), KDR (VEGFR2), and plexin A1 (PLXNA1) were cloned into the vectors and screened for optimal orientation, receptor density, and ligand induced dimerization, following established methods. Expi293 cells (Fisher) were transfected at 1 million cells/mL ˜20 hours prior to the assay with NRP2 and a co-receptor at equal mass amounts. Cells were counted, and 100,000 live cells were plated in a well of a white luminometer plate in Live Cell Imaging Solution (Fisher). Nano-Glo assay substrate (Promega) was added, and the plate was read on a Glomax 96 luminometer at room temperature to establish baseline luminescence. Antibodies were added to the well at 100 nM and the plate was again read to establish a new baseline and monitor the effects of the antibodies on spontaneous receptor dimerization. Depending on the receptor pair, typically 200 nM SEMA3F-p95 (aTyr Pharma), 2 nM VEGF-C(R&D Systems, Minnesota), or 2 nM VEGF165 (R&D Systems, Minnesota) were then added and the plate was again read to measure dimerization of receptors. Normalized responses for each individual well were calculated to the time point prior to addition of ligand, then normalized to no-antibody/no-ligand (baseline signal). Replicates were then processed to give average response and standard deviation. Results are summarized in Table E3 below, and shown graphically in FIGS. 3-10.

B1: aNRP2-11v7: humanized, affinity matured anti-NRP2 antibody, target domain b2; VH SEQ ID NO: 51, VL SEQ ID NO: 52 (antibody, V domains shown)
VH: QVQLVQSGAEVKKPGASVKVSCKASGYTFTSFGISWVRQAPGQGLEWIGEIYPRSGNTYYNENFKGRATMTADKSTSTAYMELRSLRSDDTAVYYCARSSGYYGSTPFPYWGQGTLVTVSS
VL: DIQMTQSPSSLSASVGDRVTITCRASQDISNYLNWYQQKPGKAVKLLIYYTSRLHSGVPSRFSGSGSGTDYTFTISSLQPEDIATYYCQQGNTLPWTFGGGTKVEIK
modifications: Variable heavy chain region; Light chain variable region
- migration of HLEC cells towards VEGF-C [1]: inhibited by both NRP2 antibodies to levels consistent with positive control antibodies; also recorded: effective block the migration of HLEC cells towards VEGF-C in a dose dependent manner
- Kd (Human NRP2 (aa23-855)): 0.95 nM
- effect on NRP2-plexin heterodimerization (in words) (NRP2/PLXNA1): increased the ligand induced dimerization signal

B2: aNRP2-10v10: humanized, affinity matured anti-NRP2 antibody, target domain b1, VEGF-C blocking; VH SEQ ID NO: 49, VL SEQ ID NO: 50 (antibody, V domains shown)
VH: EVQLVQSGAEVKKPGATVKISCKVSGFNIKDYYVHWVQQAPGKGLEWMGRIDVEDDETKYAPKFQGRVTITADTSTDTAYMELSSLRSEDTAVYYCATPIYGAREAWFAYWGQGTLVTVSS
VL: DIQMTQSPSSLSASVGDRVTITCTASSSVSSSYLHWYQQKPGKAPKLLIYRTSNLASGVPSRFSGSGSGTDFTLTISSLQPEDFATYYCHQYYRSPPTFGGGTKVEIK
modifications: Variable heavy chain region; Light chain variable region
- migration of HLEC cells towards VEGF-C [1]: inhibited by both NRP2 antibodies to levels consistent with positive control antibodies; also recorded: effective block the migration of HLEC cells towards VEGF-C in a dose dependent manner
- Kd (Human NRP2 (aa23-855)): 0.029 nM
- effect on NRP2-plexin heterodimerization (in words) (NRP2/PLXNA1): without significantly inhibiting
